From the Immune Epitope Database (IEDB) come the findings set out here.

For one assay, the target named is HLA-A*01:01. The experiment in a line: IEDB peptide-MHC binding, purified MHC/direct/fluorescence; filed as Kd, often an IC50 or EC50 that approximates it; ≥ and ≤ were set here for values at or beyond the usual limits of such assays.
Assay [1] has as its target HLA-A*02:01. Described as above.
The target of a further assay is HLA-A*69:01. The description is as above.
The target in a further assay is HLA-A*02:06. Briefly: IEDB peptide-MHC binding, purified MHC/competitive/fluorescence; filed as Kd, often an IC50 or EC50 that approximates it; ≥ and ≤ were set here for values at or beyond the usual limits of such assays.
The next assay has as its target HLA-A*02:11. The description is as above.
For the next assay, the target named is HLA-C*15:02. Briefly: IEDB peptide-MHC binding, purified MHC/direct/fluorescence; filed as Kd, often an IC50 or EC50 that approximates it; ≥ and ≤ were set here for values at or beyond the usual limits of such assays. The conditions noted are these: source organism: Encephalitozoon cuniculi GB-M1.
The target of the next assay is HLA-A*24:02. Briefly: IEDB peptide-MHC binding, purified MHC/competitive/fluorescence; filed as Kd, often an IC50 or EC50 that approximates it; ≥ and ≤ were set here for values at or beyond the usual limits of such assays.
The next assay has as its target HLA-C*07:02. The experiment in a line: IEDB peptide-MHC binding, purified MHC/direct/fluorescence; filed as Kd, often an IC50 or EC50 that approximates it; ≥ and ≤ were set here for values at or beyond the usual limits of such assays. The conditions noted are these: source organism: Salmonella enterica subsp. enterica serovar Typhi str. CT18.
The target of assay [2] is HLA-A*02:01. Briefly: IEDB peptide-MHC binding, purified MHC/competitive/fluorescence; filed as Kd, often an IC50 or EC50 that approximates it; ≥ and ≤ were set here for values at or beyond the usual limits of such assays.
The target in another assay is HLA-A*32:07. The description is as above. Conditions: source organism: Salmonella enterica subsp. enterica serovar Typhi.
The target in assay [3] is HLA-B*15:01. The assay is described as above. Conditions: source organism: Salmonella enterica subsp. enterica serovar Typhi.
A further assay concerns the target HLA-B*15:42. The assay is described as above. The conditions noted are these: source organism: Salmonella enterica subsp. enterica serovar Typhi.
The target of assay [4] is HLA-B*27:05. The assay is described as above. The conditions noted are these: source organism: Salmonella enterica subsp. enterica serovar Typhi.
Another assay deals with HLA-B*27:20. The description is as above. The conditions noted are these: source organism: Salmonella enterica subsp. enterica serovar Typhi.
A further assay deals with HLA-B*39:01. The description is as above. Conditions: source organism: Salmonella enterica subsp. enterica serovar Typhi.
A further assay concerns the target HLA-B*40:13. The description is as above. Conditions: source organism: Salmonella enterica subsp. enterica serovar Typhi.
In the next assay the target is HLA-B*45:06. Described as above. The conditions noted are these: source organism: Salmonella enterica subsp. enterica serovar Typhi.
The next assay deals with HLA-B*83:01. The description is as above. The conditions noted are these: source organism: Salmonella enterica subsp. enterica serovar Typhi.
The next assay concerns the target HLA-B*15:02. Briefly: IEDB peptide-MHC binding, purified MHC/direct/fluorescence; filed as Kd, often an IC50 or EC50 that approximates it; ≥ and ≤ were set here for values at or beyond the usual limits of such assays.
The next assay has as its target HLA-B*46:01. The assay is described as above.
For the next assay, the target named is HLA-A*30:02. Briefly: IEDB peptide-MHC binding, purified MHC/competitive/radioactivity; filed as Kd, often an IC50 or EC50 that approximates it; ≥ and ≤ were set here for values at or beyond the usual limits of such assays. The conditions noted are these: source organism: Dengue virus 3 Martinique/1243/1999.
The next assay deals with HLA-A*68:02. The experiment in a line: IEDB peptide-MHC binding, purified MHC/direct/fluorescence; filed as Kd, often an IC50 or EC50 that approximates it; ≥ and ≤ were set here for values at or beyond the usual limits of such assays. The conditions noted are these: source organism: Marburg virus - Musoke, Kenya, 1980.
The next assay addresses HLA-B*07:02. The description is as above.
The next assay deals with HLA-B*08:01. The assay is described as above.
The target of assay [5] is HLA-B*15:01. The assay is described as above.
For the next assay, the target named is HLA-B*15:17. The description is as above. Conditions: source organism: Marburg virus - Musoke, Kenya, 1980.
Assay [6] addresses HLA-B*27:05. Described as above.
A further assay concerns the target HLA-B*48:01. The assay is described as above. Conditions: source organism: Marburg virus - Musoke, Kenya, 1980.
The next assay has as its target HLA-B*57:01. The assay is described as above. The conditions noted are these: source organism: Marburg virus - Musoke, Kenya, 1980.
Another assay concerns the target HLA-B*58:01. Described as above.
A further assay addresses HLA-A*02:03. Briefly: IEDB peptide-MHC binding, purified MHC/competitive/fluorescence; filed as Kd, often an IC50 or EC50 that approximates it; ≥ and ≤ were set here for values at or beyond the usual limits of such assays.
The target of assay [7] is HLA-A*11:01. Described as above. Conditions: source organism: Orthomarburgvirus marburgense.
In assay [8] the target is HLA-A*26:01. The assay is described as above. Conditions: source organism: Orthomarburgvirus marburgense.
In the next assay the target is HLA-A*30:01. The assay is described as above. Conditions: source organism: Orthomarburgvirus marburgense.
The target in assay [9] is HLA-A*31:01. The description is as above. The conditions noted are these: source organism: Orthomarburgvirus marburgense.
The next assay has as its target HLA-A*03:01. The experiment in a line: IEDB peptide-MHC binding, purified MHC/direct/fluorescence; filed as Kd, often an IC50 or EC50 that approximates it; ≥ and ≤ were set here for values at or beyond the usual limits of such assays. Conditions: source organism: Corynebacterium glutamicum.
In assay [10] the target is HLA-A*11:01. Described as above. Conditions: source organism: Corynebacterium glutamicum.
In assay [11] the target is HLA-A*26:01. The assay is described as above. The conditions noted are these: source organism: Corynebacterium glutamicum.
The target of assay [12] is HLA-A*31:01. The description is as above. The conditions noted are these: source organism: Corynebacterium glutamicum.
Assay [13] has as its target HLA-B*40:01. Described as above. The conditions noted are these: source organism: Corynebacterium glutamicum.
For a further assay, the target named is HLA-A*02:12. Briefly: IEDB peptide-MHC binding, purified MHC/competitive/fluorescence; filed as Kd, often an IC50 or EC50 that approximates it; ≥ and ≤ were set here for values at or beyond the usual limits of such assays. Conditions: source organism: Corynebacterium glutamicum ATCC 13032.
Another assay concerns the target HLA-A*02:50. The assay is described as above. The conditions noted are these: source organism: Corynebacterium glutamicum ATCC 13032.
Assay [14] concerns the target HLA-B*40:01. The description is as above. Conditions: source organism: Escherichia coli B7A.
Setting [15] is: source organism: Haemophilus influenzae.
The mark [16] stands for this setting: source organism: Salmonella enterica subsp. enterica serovar Typhi.
Where [17] appears, read: source organism: dengue virus type 3.
[18] abbreviates: source organism: Marburg virus - Musoke, Kenya, 1980.
The mark [19] stands for this setting: source organism: Ravn virus - Ravn, Kenya, 1987.
Where [20] appears, read: source organism: Orthomarburgvirus marburgense.
Setting [21] is: source organism: Corynebacterium glutamicum.
[22] abbreviates: source organism: Corynebacterium glutamicum ATCC 13032.

As for YINMAWNLV, the Kd with HLA-A*01:01 (setting [15]) is 625 nM; with HLA-A*02:01 [1] (setting [15]), 135 nM; with HLA-A*69:01 (setting [15]), 639 nM; with HLA-A*02:06 (setting [15]) it was at most 0.1 nM; with HLA-A*02:11 (setting [15]), at most 0.1 nM.
TTLSIYFLL: the values for the Kd with HLA-C*15:02 and with HLA-A*24:02 (source organism: Encephalitozoon cuniculi GB-M1) were 3660 nM and 86.6 nM, respectively.
KQLELFWVI: the Kd was at least 20000 nM in the assay with HLA-C*07:02; at most 1 nM with HLA-A*02:01 [2] (setting [16]); 0.2 nM in the assay with HLA-A*24:02 (setting [16]); 1.1 nM with HLA-A*32:07; 497 nM with HLA-B*15:01 [3]; 2470 nM with HLA-B*15:42. The Kd with HLA-B*27:05 [4] is 66.1 nM; with HLA-B*27:20 it was 1.3 nM; with HLA-B*39:01 it was 6 nM; in the assay with HLA-B*40:13, 4.2 nM; in the assay with HLA-B*45:06 it was 833 nM; with HLA-B*83:01, at least 5000 nM.
With KQIANELNY, the equilibrium dissociation constant (Kd) with HLA-B*15:02 (setting [17]) was at least 20000 nM; with HLA-B*46:01 (setting [17]), at least 20000 nM; in the assay with HLA-A*30:02 it was at least 76900 nM.
On to ALFHKVQSY, for which the Kd is at least 20000 nM in the assay with HLA-A*01:01 (setting [18]); at least 20000 nM with HLA-A*68:02; at least 20000 nM with HLA-A*69:01 (setting [18]); at least 20000 nM in the assay with HLA-B*07:02 (setting [18]); at least 20000 nM in the assay with HLA-B*08:01 (setting [19]); 20.5 nM with HLA-B*15:01 [5] (setting [18]). Besides, the Kd was 38 nM with HLA-B*15:02 (setting [19]); 4.6 nM with HLA-B*15:17; at least 20000 nM in the assay with HLA-B*27:05 [6] (setting [18]); at least 20000 nM with HLA-B*46:01 (setting [18]); at least 20000 nM with HLA-B*48:01; at least 20000 nM with HLA-B*57:01. Also, the Kd in the assay with HLA-B*58:01 (setting [18]) was at least 20000 nM; in the assay with HLA-A*02:01 [2] (setting [20]) it was 1310 nM; with HLA-A*02:03 (setting [20]), 1560 nM; with HLA-A*11:01 [7], 1940 nM; in the assay with HLA-A*26:01 [8] it was 1140 nM; with HLA-A*30:01, 438 nM. In addition, the Kd with HLA-A*31:01 [9] amounted to 3920 nM.
In the case of FLPGQYMNI, the Kd in the assay with HLA-A*01:01 (setting [21]) was at least 20000 nM; with HLA-A*02:01 [1] (setting [21]) it was 72.8 nM; with HLA-A*03:01 it was at least 20000 nM; in the assay with HLA-A*11:01 [10], at least 20000 nM; in the assay with HLA-A*26:01 [11], at least 20000 nM; in the assay with HLA-A*31:01 [12] it was at least 20000 nM. Also, the dissociation constant (Kd) was 404 nM in the assay with HLA-A*69:01 (setting [21]); at least 20000 nM with HLA-B*07:02 (setting [21]); at least 20000 nM with HLA-B*08:01 (setting [21]); at least 20000 nM with HLA-B*15:01 [5] (setting [21]); at least 20000 nM with HLA-B*27:05 [6] (setting [21]); at least 20000 nM in the assay with HLA-B*40:01 [13]. Further, the Kd with HLA-B*58:01 (setting [21]) was at least 20000 nM; with HLA-A*02:03 (setting [22]), at most 0.1 nM; with HLA-A*02:06 (setting [22]) it was at most 0.1 nM; with HLA-A*02:11 (setting [22]), at most 0.1 nM; with HLA-A*02:12, at most 0.1 nM; with HLA-A*02:50, at most 0.1 nM.
The sequence GEHVPEIIL yielded a Kd in the assay with HLA-B*40:01 [14] of 1.7 nM.
